# Test results as given in patent publication US9340577.
# Where “and” joins values, the source holds several entries; their conditions need not be identical. Equal entries are not always repeated.
# T1: H-2Dd (mouse)
# T1 chain 1: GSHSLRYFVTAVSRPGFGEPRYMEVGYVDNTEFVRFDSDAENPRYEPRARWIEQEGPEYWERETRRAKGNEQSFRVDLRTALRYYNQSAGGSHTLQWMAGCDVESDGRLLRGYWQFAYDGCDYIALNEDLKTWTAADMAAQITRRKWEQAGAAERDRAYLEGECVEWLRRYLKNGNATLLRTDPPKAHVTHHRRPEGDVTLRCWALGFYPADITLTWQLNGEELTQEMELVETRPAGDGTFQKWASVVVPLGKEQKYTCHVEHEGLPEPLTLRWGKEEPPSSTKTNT
# T1 chain 2: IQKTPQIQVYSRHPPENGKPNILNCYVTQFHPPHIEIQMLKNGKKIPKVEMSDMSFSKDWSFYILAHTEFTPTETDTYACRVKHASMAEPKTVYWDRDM
# T2: H-2Kb (mouse)
# T2 chain 1: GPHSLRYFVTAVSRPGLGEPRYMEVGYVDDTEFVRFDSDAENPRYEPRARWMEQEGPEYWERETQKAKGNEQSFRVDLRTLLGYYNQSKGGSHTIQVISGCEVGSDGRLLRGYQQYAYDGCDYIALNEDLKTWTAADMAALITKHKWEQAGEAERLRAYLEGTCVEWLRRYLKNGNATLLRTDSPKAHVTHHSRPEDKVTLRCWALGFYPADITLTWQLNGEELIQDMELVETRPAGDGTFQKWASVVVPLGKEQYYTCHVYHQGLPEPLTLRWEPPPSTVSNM
# T2 chain 2: T1 chain 2
# T3: H-2Kd (mouse)
# T3 chain 1: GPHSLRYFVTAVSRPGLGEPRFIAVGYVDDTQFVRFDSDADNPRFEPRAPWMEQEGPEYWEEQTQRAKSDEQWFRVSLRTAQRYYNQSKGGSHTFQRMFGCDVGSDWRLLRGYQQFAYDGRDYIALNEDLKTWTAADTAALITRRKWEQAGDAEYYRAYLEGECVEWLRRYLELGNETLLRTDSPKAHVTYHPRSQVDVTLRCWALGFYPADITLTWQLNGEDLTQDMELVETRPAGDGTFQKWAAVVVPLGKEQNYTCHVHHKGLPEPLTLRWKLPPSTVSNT
# T3 chain 2: T1 chain 2
# T4: H-2Db (mouse)
# T4 chain 1: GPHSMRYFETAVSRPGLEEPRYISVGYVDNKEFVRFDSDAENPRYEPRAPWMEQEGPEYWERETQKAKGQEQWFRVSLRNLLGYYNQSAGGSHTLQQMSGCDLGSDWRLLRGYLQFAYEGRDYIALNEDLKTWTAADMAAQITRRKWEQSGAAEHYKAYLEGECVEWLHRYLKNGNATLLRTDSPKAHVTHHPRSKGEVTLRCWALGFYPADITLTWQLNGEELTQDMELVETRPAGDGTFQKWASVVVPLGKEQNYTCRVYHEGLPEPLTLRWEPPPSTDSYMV
# T4 chain 2: T1 chain 2
# T5: H-2Ld (mouse)
# T5 chain 1: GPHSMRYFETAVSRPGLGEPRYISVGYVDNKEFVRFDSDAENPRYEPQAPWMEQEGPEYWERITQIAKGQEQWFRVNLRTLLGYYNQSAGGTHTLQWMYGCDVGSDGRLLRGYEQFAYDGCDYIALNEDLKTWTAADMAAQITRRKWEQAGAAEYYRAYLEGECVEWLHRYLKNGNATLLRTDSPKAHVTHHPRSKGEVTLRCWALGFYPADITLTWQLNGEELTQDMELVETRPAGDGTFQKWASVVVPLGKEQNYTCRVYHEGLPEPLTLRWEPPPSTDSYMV
# T5 chain 2: T1 chain 2
# B1: Ova 257 (peptide)
# chain: SIINFEKL
# B2: LCMV NP 118 (peptide)
# chain: RPQASGVYM
# B3: LCMV GP 33 (peptide)
# chain: KAVYNFATM
# B4: 1164.03 (peptide)
# chain: YPHFMPTNL
# B5: HIV nef 84 (peptide)
# chain: FPVRPQVPL
# Tests used:
# Assay in all cases: competition
# Settings in all cases: modification not given
# H-2Dd (mouse) = molecular target: T1, H-2Dd (mouse)
# H-2Kb (mouse) = molecular target: T2, H-2Kb (mouse)
# H-2Kd (mouse) = molecular target: T3, H-2Kd (mouse)
# H-2Db (mouse) = molecular target: T4, H-2Db (mouse)
# H-2Ld (mouse) = molecular target: T5, H-2Ld (mouse)
# [1] = molecular target: HLA-B*3501 (human), P01889
# [2] = molecular target: HLA-B*3501 (human), P01889; remark: listed apart in the source
# [3] = molecular target: HLA-B*5101 (human), P01889
# [4] = molecular target: HLA-B*5301 (human), P01889
# [5] = molecular target: HLA-B*5401 (human), P01889
binder,measurement,setting,value
B1,IC50,H-2Dd (mouse),> 37000 nM
same,IC50,H-2Kb (mouse),3.7 nM and 1.5 nM
same,IC50,H-2Kd (mouse),> 10000 nM
B2,IC50,H-2Db (mouse),> 44000 nM
same,IC50,H-2Kb (mouse),> 31000 nM
same,IC50,H-2Ld (mouse),0.99 nM and 3 nM
B3,IC50,H-2Ld (mouse),> 27000 nM
B4,IC50,H-2Ld (mouse),7.5 nM
B5,IC50,[1],43 nM
same,IC50,[2],2.2 nM
same,IC50,[3],12 nM
same,IC50,[4],92 nM
same,IC50,[5],71 nM
